Test results reported in PMC9482650, “Quantitative fragmentomics allow affinity mapping of interactomes” (Nature Communications, 2022).

Experiments:
Assay in all cases: holdup assay
Set-up in all cases: key: below the threshold = too weak to quantify, mostly under pKd 3.1 to 4
Inadl_2, Q8NI35 = target: Inadl_2, Q8NI35
ARHGEF11, O15085 = target: T1, ARHGEF11, O15085
T1 sequence (O15085 42-136, limits assumed, looked up): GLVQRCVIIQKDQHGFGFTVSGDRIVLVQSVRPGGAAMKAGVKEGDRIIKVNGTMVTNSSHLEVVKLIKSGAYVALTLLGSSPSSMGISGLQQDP

GRIP2_3, Q9C0E4 = target: GRIP2_3, Q9C0E4
TIAM2, Q8IVF5 = target: T2, TIAM2, Q8IVF5
T2 sequence (Q8IVF5 885-986, limits assumed, looked up): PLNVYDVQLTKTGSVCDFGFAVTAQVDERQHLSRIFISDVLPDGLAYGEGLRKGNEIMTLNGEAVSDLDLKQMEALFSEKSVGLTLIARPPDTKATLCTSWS

MAGI2_3, Q86UL8 = target: MAGI2_3, Q86UL8
FRMPD2_2, Q68DX3 = target: FRMPD2_2, Q68DX3
SNTG2, Q9NY99 = target: T3, SNTG2, Q9NY99
T3 sequence (Q9NY99 68-166, limits assumed, looked up): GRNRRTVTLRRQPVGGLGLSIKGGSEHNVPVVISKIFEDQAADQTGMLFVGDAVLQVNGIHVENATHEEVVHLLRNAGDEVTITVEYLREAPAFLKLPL

HTRA1, Q92743 = target: HTRA1, Q92743
PDZRN4_1, Q6ZMN7 = target: PDZRN4_1, Q6ZMN7
SNTG1, Q9NSN8 = target: T4, SNTG1, Q9NSN8
T4 sequence (Q9NSN8 52-150, limits assumed, looked up): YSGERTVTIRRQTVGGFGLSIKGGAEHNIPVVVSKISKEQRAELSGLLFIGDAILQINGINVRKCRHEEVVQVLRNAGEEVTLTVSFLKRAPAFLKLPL

RAPGEF6, Q8TEU7 = target: T5, RAPGEF6, Q8TEU7
T5 sequence (Q8TEU7 525-625, limits assumed, looked up): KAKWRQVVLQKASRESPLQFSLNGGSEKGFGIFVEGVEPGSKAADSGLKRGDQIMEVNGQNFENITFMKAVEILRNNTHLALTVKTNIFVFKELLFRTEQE

GRIP1_3, Q9Y3R0 = target: T6, GRIP1_3, Q9Y3R0
T6 sequence (Q9Y3R0 247-346, limits assumed, looked up): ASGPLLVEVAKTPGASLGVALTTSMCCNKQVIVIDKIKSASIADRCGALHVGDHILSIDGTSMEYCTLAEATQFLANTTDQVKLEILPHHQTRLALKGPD

DFNB31_3, Q9P202 = target: T7, DFNB31_3, Q9P202
T7 sequence (Q9P202 811-907, limits assumed, looked up): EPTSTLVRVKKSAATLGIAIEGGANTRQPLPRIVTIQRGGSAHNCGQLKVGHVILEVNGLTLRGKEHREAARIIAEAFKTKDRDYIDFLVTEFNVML

DLG2_2, Q15700 = target: DLG2_2, Q15700
Inadl_8, Q8NI35 = target: Inadl_8, Q8NI35
DFNB31_1, Q9P202 = target: T8, DFNB31_1, Q9P202
T8 sequence (Q9P202 135-233, limits assumed, looked up): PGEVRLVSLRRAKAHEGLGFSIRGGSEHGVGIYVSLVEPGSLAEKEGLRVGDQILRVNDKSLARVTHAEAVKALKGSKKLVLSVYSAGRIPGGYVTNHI

DLG1_3, Q12959 = target: DLG1_3, Q12959
GRIP2_4, Q9C0E4 = target: GRIP2_4, Q9C0E4
LIMK2, P53671 = target: LIMK2, P53671
PARD3_3, Q8TEW0 = target: PARD3_3, Q8TEW0
DLG5_1, Q8TDM6 = target: DLG5_1, Q8TDM6
IL16_1, Q14005 = target: IL16_1, Q14005
DLG4_2, P78352 = target: DLG4_2, P78352
DVL3, Q92997 = target: T9, DVL3, Q92997
T9 sequence (Q92997 244-331, limits assumed, looked up): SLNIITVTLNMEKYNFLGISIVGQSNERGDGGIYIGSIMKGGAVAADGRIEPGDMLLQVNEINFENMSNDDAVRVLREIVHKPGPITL

RHPN1, Q8TCX5 = target: T10, RHPN1, Q8TCX5
T10 sequence (Q8TCX5 508-602, limits assumed, looked up): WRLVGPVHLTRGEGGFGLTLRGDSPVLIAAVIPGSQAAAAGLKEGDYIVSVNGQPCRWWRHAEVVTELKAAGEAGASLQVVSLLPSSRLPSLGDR

LIN7C, Q9NUP9 = target: T11, LIN7C, Q9NUP9
T11 sequence (Q9NUP9 88-185, limits assumed, looked up): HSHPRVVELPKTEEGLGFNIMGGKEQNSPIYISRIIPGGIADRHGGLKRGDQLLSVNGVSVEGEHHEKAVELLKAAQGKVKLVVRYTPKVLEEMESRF

DLG1_1, Q12959 = target: DLG1_1, Q12959
[1] = plain residues with an end cap or a label only (N-terminal biotin on a linker: ahx)
[2] = plain residues with an end cap or a label only (N-terminal biotin on a linker: ttds)
[3] = plain residues with an end cap or a label only (N-terminal biotin on a linker: ado-ado, ttds)

Sequence of GRIP2_4, Q9C0E4 (Q9C0E4 446-548): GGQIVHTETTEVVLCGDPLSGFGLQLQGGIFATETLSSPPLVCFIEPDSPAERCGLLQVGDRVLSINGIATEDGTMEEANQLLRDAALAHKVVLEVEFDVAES
Sequence of DLG5_1, Q8TDM6 (Q8TDM6 617-713): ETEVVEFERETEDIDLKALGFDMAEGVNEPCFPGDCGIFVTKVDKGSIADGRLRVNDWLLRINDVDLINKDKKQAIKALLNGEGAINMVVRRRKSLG
Sequence of DLG2_2, Q15700 (Q15700 189-283): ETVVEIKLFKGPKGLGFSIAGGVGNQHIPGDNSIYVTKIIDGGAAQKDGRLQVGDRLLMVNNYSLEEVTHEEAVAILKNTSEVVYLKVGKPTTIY
Sequence of FRMPD2_2, Q68DX3 (Q68DX3 944-1038): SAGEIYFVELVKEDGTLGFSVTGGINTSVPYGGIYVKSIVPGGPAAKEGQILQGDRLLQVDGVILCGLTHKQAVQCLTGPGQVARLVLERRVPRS
Sequence of IL16_1, Q14005 (Q14005 210-306): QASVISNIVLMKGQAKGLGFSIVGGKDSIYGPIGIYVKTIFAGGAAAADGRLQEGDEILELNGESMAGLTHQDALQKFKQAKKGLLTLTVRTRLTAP
Sequence of LIMK2, P53671 (P53671 143-248): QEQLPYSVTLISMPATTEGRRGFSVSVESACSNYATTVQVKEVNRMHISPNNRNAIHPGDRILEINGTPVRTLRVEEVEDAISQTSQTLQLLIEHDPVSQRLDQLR
Sequence of PDZRN4_1, Q6ZMN7 (Q6ZMN7 213-318): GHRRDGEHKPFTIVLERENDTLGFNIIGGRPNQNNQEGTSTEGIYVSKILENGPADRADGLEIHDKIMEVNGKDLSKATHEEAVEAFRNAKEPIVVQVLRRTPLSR
Sequence of PARD3_3, Q8TEW0 (Q8TEW0 582-685): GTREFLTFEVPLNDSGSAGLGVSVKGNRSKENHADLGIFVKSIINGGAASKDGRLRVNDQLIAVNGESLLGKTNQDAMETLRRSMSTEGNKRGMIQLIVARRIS
Sequence of DLG4_2, P78352 (P78352 155-259): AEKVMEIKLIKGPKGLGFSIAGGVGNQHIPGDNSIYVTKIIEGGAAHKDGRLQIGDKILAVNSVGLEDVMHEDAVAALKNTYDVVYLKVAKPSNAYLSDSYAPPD
Sequence of HTRA1, Q92743 (Q92743 360-477): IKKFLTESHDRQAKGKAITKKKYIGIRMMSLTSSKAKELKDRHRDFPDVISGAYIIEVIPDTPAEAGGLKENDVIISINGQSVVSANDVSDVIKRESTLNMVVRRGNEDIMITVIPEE
Sequence of GRIP2_3, Q9C0E4 (Q9C0E4 238-339): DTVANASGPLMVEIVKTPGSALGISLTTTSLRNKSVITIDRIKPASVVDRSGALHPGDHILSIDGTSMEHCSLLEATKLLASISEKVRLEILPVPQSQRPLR
Sequence of Inadl_2, Q8NI35 (Q8NI35 238-335): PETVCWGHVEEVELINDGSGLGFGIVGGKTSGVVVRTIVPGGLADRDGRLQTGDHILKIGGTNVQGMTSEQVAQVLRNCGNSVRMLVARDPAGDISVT
Sequence of MAGI2_3, Q86UL8 (Q86UL8 600-682): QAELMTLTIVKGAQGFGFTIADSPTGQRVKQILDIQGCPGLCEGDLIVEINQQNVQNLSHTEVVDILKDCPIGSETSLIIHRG
Sequence of Inadl_8, Q8NI35 (Q8NI35 1425-1530): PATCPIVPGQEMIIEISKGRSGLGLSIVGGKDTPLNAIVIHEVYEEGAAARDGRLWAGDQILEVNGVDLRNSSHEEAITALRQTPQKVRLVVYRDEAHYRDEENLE

SKKNELFSNL [NHERF1, O14745]
pKd (Inadl_2, Q8NI35; [1]): below the threshold
pKd (ARHGEF11, O15085; [1]): below the threshold
pKd (GRIP2_3, Q9C0E4; [1]): below the threshold
pKd (TIAM2, Q8IVF5; [1]): below the threshold
pKd (MAGI2_3, Q86UL8; [1]): below the threshold
pKd (FRMPD2_2, Q68DX3; [1]): below the threshold
pKd (SNTG2, Q9NY99; [1]): below the threshold
pKd (HTRA1, Q92743; [1]): below the threshold
pKd (PDZRN4_1, Q6ZMN7; [1]): below the threshold
pKd (SNTG1, Q9NSN8; [1]): below the threshold
pKd (RAPGEF6, Q8TEU7; [1]): below the threshold
pKd (GRIP1_3, Q9Y3R0; [1]): below the threshold
pKd (DFNB31_3, Q9P202; [1]): below the threshold
pKd (DLG2_2, Q15700; [1]): below the threshold
pKd (Inadl_8, Q8NI35; [1]): below the threshold
pKd (DFNB31_1, Q9P202; [1]): below the threshold
pKd (DLG1_3, Q12959; [1]): below the threshold
pKd (GRIP2_4, Q9C0E4; [1]): below the threshold
pKd (LIMK2, P53671; [1]): below the threshold
pKd (PARD3_3, Q8TEW0; [1]): below the threshold
pKd (DLG5_1, Q8TDM6; [1]): below the threshold
pKd (IL16_1, Q14005; [1]): below the threshold
pKd (DLG4_2, P78352; [1]): below the threshold
pKd (DVL3, Q92997; [1]): below the threshold
pKd (RHPN1, Q8TCX5; [1]): 3.76
pKd (LIN7C, Q9NUP9; [1]): below the threshold
pKd (DLG1_1, Q12959; [1]): below the threshold

PPRQRSETQV [HPV82-E6, Q9IR59]
pKd (Inadl_2, Q8NI35; [2]): below the threshold
pKd (ARHGEF11, O15085; [2]): 3.74
pKd (GRIP2_3, Q9C0E4; [2]): below the threshold
pKd (TIAM2, Q8IVF5; [2]): below the threshold
pKd (MAGI2_3, Q86UL8; [2]): 3.73
pKd (FRMPD2_2, Q68DX3; [2]): below the threshold
pKd (SNTG2, Q9NY99; [2]): 4
pKd (HTRA1, Q92743; [2]): below the threshold
pKd (PDZRN4_1, Q6ZMN7; [2]): 3.83
pKd (SNTG1, Q9NSN8; [2]): 3.99
pKd (RAPGEF6, Q8TEU7; [2]): below the threshold
pKd (GRIP1_3, Q9Y3R0; [2]): below the threshold
pKd (DFNB31_3, Q9P202; [2]): below the threshold
pKd (DLG2_2, Q15700; [2]): 4.79
pKd (Inadl_8, Q8NI35; [2]): below the threshold
pKd (DFNB31_1, Q9P202; [2]): below the threshold
pKd (DLG1_3, Q12959; [2]): 3.99
pKd (GRIP2_4, Q9C0E4; [2]): below the threshold
pKd (LIMK2, P53671; [2]): below the threshold
pKd (PARD3_3, Q8TEW0; [2]): below the threshold
pKd (DLG5_1, Q8TDM6; [2]): below the threshold
pKd (IL16_1, Q14005; [2]): below the threshold
pKd (DLG4_2, P78352; [2]): 4.9
pKd (DVL3, Q92997; [2]): below the threshold
pKd (RHPN1, Q8TCX5; [2]): 3.72
pKd (LIN7C, Q9NUP9; [2]): 3.64
pKd (DLG1_1, Q12959; [2]): 4.75

SNAKAVETDV [KCNA4, P22459]
pKd (Inadl_2, Q8NI35; [3]): below the threshold
pKd (ARHGEF11, O15085; [3]): 3.59
pKd (GRIP2_3, Q9C0E4; [3]): below the threshold
pKd (TIAM2, Q8IVF5; [3]): below the threshold
pKd (MAGI2_3, Q86UL8; [3]): 3.54
pKd (FRMPD2_2, Q68DX3; [3]): 3.52
pKd (SNTG2, Q9NY99; [3]): 4.28
pKd (HTRA1, Q92743; [3]): below the threshold
pKd (PDZRN4_1, Q6ZMN7; [3]): below the threshold
pKd (SNTG1, Q9NSN8; [3]): 4.89
pKd (RAPGEF6, Q8TEU7; [3]): below the threshold
pKd (GRIP1_3, Q9Y3R0; [3]): below the threshold
pKd (DFNB31_3, Q9P202; [3]): below the threshold
pKd (DLG2_2, Q15700; [3]): 5
pKd (Inadl_8, Q8NI35; [3]): below the threshold
pKd (DFNB31_1, Q9P202; [3]): below the threshold
pKd (DLG1_3, Q12959; [3]): below the threshold
pKd (GRIP2_4, Q9C0E4; [3]): below the threshold
pKd (LIMK2, P53671; [3]): below the threshold
pKd (PARD3_3, Q8TEW0; [3]): below the threshold
pKd (DLG5_1, Q8TDM6; [3]): below the threshold
pKd (IL16_1, Q14005; [3]): below the threshold
pKd (DLG4_2, P78352; [3]): 5.19
pKd (DVL3, Q92997; [3]): below the threshold
pKd (RHPN1, Q8TCX5; [3]): 4.15
pKd (LIN7C, Q9NUP9; [3]): below the threshold
pKd (DLG1_1, Q12959; [3]): 4.72
